Columns and labels:
[1] = target: T1, HIV-1 Rev protein (HIV-1) (UniProt P04618); test: filter; settings: background affinity of starting pool
T1 sequence: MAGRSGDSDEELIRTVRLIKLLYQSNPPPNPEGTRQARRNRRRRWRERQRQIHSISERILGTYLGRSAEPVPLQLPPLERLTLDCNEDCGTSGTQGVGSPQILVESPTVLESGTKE

[2] = target: HIV-1 reverse transcriptase (HIV-RT) (HIV-1) (UniProt P04585+P04585); test: filter

Sequence	Kd [1] [nM]	binding signal (fold higher affinity than ligand B) [2]
CCCGGAUCCUCUUUACCUCUGUGUGAGAUACAGAGUCCACAAACGUGUUCUCAAUGCACCCGGUCGGAAGGCCAUCAAUAGUCCC	100	–
GGUCCGAAGUGCAACGGGAAAAUGCACUNNNNGUGARNNNNUGNUCCNNNN [extended HIV-RT ligands, Extension Motif I consensus]	–	> 10
GGUCCGAAGUGCAACGGGAAAAUGCACUNNNNNNAGNNNNNNUGNUGNNNNNNN [extended HIV-RT ligands, Extension Motif II consensus]	–	> 10

— patent publication US5817785
